Patent publication US20230124851A1 (INHIBRX LNC, published 2023)
Changes are numbered by the printed parent chain.

T1: human B7H3 (CD276) on the cell surface (human, UniProt Q5ZPR3 29-534)
T1 construct: B7H3 on A375 and other B7H3-positive or transfected cells
T1 sequence: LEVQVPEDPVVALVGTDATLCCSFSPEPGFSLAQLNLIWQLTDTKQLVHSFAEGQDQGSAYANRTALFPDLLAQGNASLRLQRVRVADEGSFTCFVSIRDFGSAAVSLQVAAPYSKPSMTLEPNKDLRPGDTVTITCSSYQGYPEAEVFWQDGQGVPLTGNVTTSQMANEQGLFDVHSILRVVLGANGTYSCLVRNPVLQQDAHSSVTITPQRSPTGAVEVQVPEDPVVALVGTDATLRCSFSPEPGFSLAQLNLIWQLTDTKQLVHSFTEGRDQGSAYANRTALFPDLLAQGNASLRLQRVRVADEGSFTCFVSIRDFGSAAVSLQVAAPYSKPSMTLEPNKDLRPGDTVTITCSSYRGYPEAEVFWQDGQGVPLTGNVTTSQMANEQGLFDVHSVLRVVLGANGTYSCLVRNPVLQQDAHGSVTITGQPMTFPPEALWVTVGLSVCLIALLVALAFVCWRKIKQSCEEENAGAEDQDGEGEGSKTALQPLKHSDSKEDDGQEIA

B1: cx5187 (bispecific antibody)
chain 1: EVQLVESGGGEVQPGGSLRLSCAASGFSFSSNVMMWVRQAPGKGLEWVSTIYSSGTGTFYAESVKGRFTISRDNAKNTLYLQMSSLRPEDTAVYYCATSGPVRGWGPRSQGTLVTVKPPGGGGDKTHTCPPCPAPGGPSVFLFPPKPKDTLMISRTPEVTCVVVDVSHEDPEVKFNWYVDGVEVHNAKTKPREEQYNSTYRVVSVLTVLHQDWLNGKEYKCKVSNKALPAPIEKTISKAKGQPREPQVYTLPPCRDELTKNQVSLWCLVKGFYPSDIAVEWESNGQPENNYKTTPPVLDSDGSFFLYSKLTVDKSRWQQGNVFSCSVMHEALHNHYTQKSLSLSPTGGGGGSGGGGGSGGGGGSEVQLVESGGGLVQPGGSLRLSCAASGFTFNTYAMNWVRQAPGKCLEWVARIRSKYNNYATYYADSVKGRFTISRDDAKNTLYLQMSSLRAEDTAVYYCVRHGNFGNSYVSWFAYWGQGTLVTVKPGGGGEVQLVESGGGEVQPGGSLRLSCAASGFTFSSYHMSWFRQAPGKQREPVATSHHGGTTNYAGSVKGRFTISRDNAKNTVYLQMNTLRAEDTAVYYCKADHGYQGRGYWGQGTLVTVKP
chain 2: DKTHTCPPCPAPGGPSVFLFPPKPKDTLMISRTPEVTCVVVDVSHEDPEVKFNWYVDGVEVHNAKTKPREEQYNSTYRVVSVLTVLHQDWLNGKEYKCKVSNKALPAPIEKTISKAKGQPREPQVCTLPPSRDELTKNQVSLSCAVKGFYPSDIAVEWESNGQPENNYKTTPPVLDSDGSFFLVSKLTVDKSRWQQGNVFSCSVMHEALHNRYTQKSLSLSPTGGGGGSGGGGGSGGGGGSQAVVTQEPSLTVSPGGTVTLTCGSSTGAVTTSNYANWVQQKPGQAFRGLIGGTNKRAPGVPARFSGSLLGGKAALTISGAQPEDEADYYCALWYSNHWVFGCGTKLEIKGGGGEVQLLESGGGEVQPGGSLRLSCAASGFSFSINAMGWYRQAPGKRREFVAAIESGRNTVYAESVKGRFTISRDNAKNTVYLQMSSLRAEDTAVYYCGLLKGNRVVSPSVAYWGQGTLVTVKP
B2: cx5965 (bispecific antibody)
chain 1: EVQLVESGGGEVQPGGSLRLSCAASGFSFSSNVMMWVRQAPGKGLEWVSTIYSSGTGTFYAESVKGRFTISRDNAKNTLYLQMSSLRPEDTAVYYCATSGPVRGWGPRSQGTLVTVKPPGGGGDKTHTCPPCPAPGGPSVFLFPPKPKDTLMISRTPEVTCVVVDVSHEDPEVKFNWYVDGVEVHNAKTKPREEQYNSTYRVVSVLTVLHQDWLNGKEYKCKVSNKALPAPIEKTISKAKGQPREPQVYTLPPCRDELTKNQVSLWCLVKGFYPSDIAVEWESNGQPENNYKTTPPVLDSDGSFFLYSKLTVDKSRWQQGNVFSCSVMHEALHNHYTQKSLSLSPTGGGGGSGGGGGSGGGGGSEVQLVESGGGLVQPGGSLRLSCAASGFTFNTYAMNWVRQAPGKCLEWVARIRSKYNNYATYYADSVKGRFTISRDDAKNTLYLQMSSLRAEDTAVYYCVRHGNFGNSYVSWFAYWGQGTLVTVKP
chain 2: B1 chain 2
notes: first-named used
B3: cx5873 (bispecific antibody)
chain 1: DKTHTCPPCPAPGGPSVFLFPPKPKDTLMISRTPEVTCVVVDVSHEDPEVKFNWYVDGVEVHNAKTKPREEQYNSTYRVVSVLTVLHQDWLNGKEYKCKVSNKALPAPIEKTISKAKGQPREPQVYTLPPCRDELTKNQVSLWCLVKGFYPSDIAVEWESNGQPENNYKTTPPVLDSDGSFFLYSKLTVDKSRWQQGNVFSCSVMHEALHNHYTQKSLSLSPTGGGGGSGGGGGSGGGGGSEVQLVESGGGLVQPGGSLRLSCAASGFTFNTYAMNWVRQAPGKCLEWVARIRSKYNNYATYYADSVKGRFTISRDDAKNTLYLQMSSLRAEDTAVYYCVRHGNFGNSYVSWFAYWGQGTLVTVKPGGGGEVQLVESGGGEVQPGGSLRLSCAASGFTFSSYHMSWFRQAPGKQREPVATSHHGGTTNYAGSVKGRFTISRDNAKNTVYLQMNTLRAEDTAVYYCKADHGYQGRGYWGQGTLVTVKP
chain 2: B1 chain 2
notes: first-named used
B4: cx5823 (bispecific antibody)
chain 1: B1 chain 1 with T346G, P540L
chain 2: B1 chain 2 with T223G
B5: cx5067 (bispecific antibody)
chain 1: EVQLVESGGGLVQPGGSLRLSCAASGFTFSSFGMHWVRQAPGKGLEWVAYISSDSSAIYYADTVKGRFTISRDNAKNSLYLQMNSLRDEDTAVYYCGRGRENIYYGSRLDYWGQGTTVTVSSASTKGPSVFPLAPSSKSTSGGTAALGCLVKDYFPEPVTVSWNSGALTSGVHTFPAVLQSSGLYSLSSVVTVPSSSLGTQTYICNVNHKPSNTKVDKKVEPKSCDKTHTCPPCPAPPVAGPSVFLFPPKPKDTLMISRTPEVTCVVVDVKHEDPEVKFNWYVDGVEVHNAKTKPREEEYNSTYRVVSVLTVLHQDWLNGKEYKCKVSNKALPAPIEKTISKAKGQPREPQVYTLPPSREEMTKNQVSLTCDVSGFYPSDIAVEWESDGQPENNYKTTPPVLDSDGSFFLYSKLTVDKSRWEQGDVFSCSVMHEALHNHYTQKSLSLSPGKGGGGSGGGGSGGGGSEVQLVESGGGLVQPGGSLRLSCAASGFTFSTYAMNWVRQAPGKGLEWVGRIRSKYNNYATYYADSVKGRFTISRDDSKNTLYLQMNSLRAEDTAVYYCVRHGNFGDSYVSWFAYWGQGTLVTVSS
chain 2: EVQLVESGGGLVQPGGSLRLSCAASGFTFSSFGMHWVRQAPGKGLEWVAYISSDSSAIYYADTVKGRFTISRDNAKNSLYLQMNSLRDEDTAVYYCGRGRENIYYGSRLDYWGQGTTVTVSSASTKGPSVFPLAPSSKSTSGGTAALGCLVKDYFPEPVTVSWNSGALTSGVHTFPAVLQSSGLYSLSSVVTVPSSSLGTQTYICNVNHKPSNTKVDKKVEPKSCDKTHTCPPCPAPPVAGPSVFLFPPKPKDTLMISRTPEVTCVVVDVKHEDPEVKFNWYVDGVEVHNAKTKPREEQYNSTYRVVSVLTVLHQDWLNGKEYKCKVSNKALPAPIEKTISKAKGQPREPQVYTLPPSREQMTKNQVKLTCLVKGFYPSDIAVEWESNGQPENNYKTTPPVLDSDGSFFLYSKLTVDKSRWQQGNVFSCSVMHEALHNHYTQKSLSLSPGKGGGGSGGGGSGGGGSQAVVTQEPSLTVSPGGTVTLTCGSSTGAVTTSNYANWVQQKPGKSPRGLIGGTNKRAPGVPARFSGSLLGGKAALTISGAQPEDEADYYCALWYSNHWVFGGGTKLTVL
light: DIQLTQSPSFLSASVGDRVTITCKASQNVDTNVAWYQQKPGKAPKALIYSASYRYSGVPSRFSGSGSGTDFTLTISSLQPEDFATYYCQQYNNYPFTFGQGTKLEIKRTVAAPSVFIFPPSDEQLKSGTASVVCLLNNFYPREAKVQWKVDNALQSGNSQESVTEQDSKDSTYSLSSTLTLSKADYEKHKVYACEVTHQGLSSPVTKSFNRGEC
notes: anti-CD3 Fv not disulfide-stabilized; also called MAB-FV
B6: cx6084 (bispecific antibody, human IgG1, kappa)
chain 1: B5 chain 1 with S496N, G510C, G515A, S543A, N552S, D572N, S590K, S591P
chain 2: B5 chain 2 with K510Q, S511A, P512F, G568C, T573E, V574I, L575K
light: B5 light
notes: disulfide-stabilized anti-CD3 Fv; also called MAB-dsFV
B7: cx6083 (bispecific antibody)
chain 1: B5 chain 1 with G510C
chain 2: B5 chain 2 with G568C
light: B5 light
notes: as for B6

The binders below were run against T2, CD3 on the surface of human T cells (human, UniProt P07766 23-207) (assay: flow cytometry on isolated T cells, anti-human Fc secondary).
T2 construct: whole, on cells; Part of the CD3/TCR complex on cells; also called CD3 epsilon
T2 sequence (P07766 23-207): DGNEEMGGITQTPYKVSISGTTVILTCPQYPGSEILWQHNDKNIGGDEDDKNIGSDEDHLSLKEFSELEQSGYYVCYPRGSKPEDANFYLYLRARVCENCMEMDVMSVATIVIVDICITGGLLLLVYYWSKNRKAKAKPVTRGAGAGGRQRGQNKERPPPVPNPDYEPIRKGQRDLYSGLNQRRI
Protocol: (§1) Binding of exemplary multispecific constructs containing an antigen-binding domain directed against B7H3 were assessed for binding to B7H3 positive A375 tumor cells or primary T-cells. The constructs were generated containing antigen-binding domain(s) that were either sdAbs or a FABs, and that were positioned either only N-terminal to the Fc or both N-terminal to the Fc and C-terminal to the anti-CD3 binding domain (see FIGS. 30A and 30C and Table E5). Among the various formats of constructs tested included: sdAb-Fc-dsFV-sdAb (cx3072, cx5952) sdAb-Fc-FV (cx6079), sdAb-Fc-dsFV (cs6080, cx6081), MAB-FV (cx5067) and MAB-dsFV (cx6083, cx6084), where the FV represents the anti-CD3 binding domain composed of VH and VL domain pairs and “ds” notes disulfide stabilized via an engineered interdomain disulfide bond.
(§2) Binding was assessed as described above via flow cytometry using a fluorophore-conjugated anti-human Fc secondary antibody. cx3072 bound to A375 cells with high affinity (FIG. 31A) but not to isolated T-cells (FIG. 31B). […] The B7H3 -targeting sdAb containing constructs (cx5952, cx6079, cx6080, and cx6081) bound to B7H3 positive cells with similar affinities (depicted in FIG. 31E), with cx5952 displaying higher maximal binding. cx6079, cx6080 and cx6081 contain two identical B7H3-targeting sdAbs, whereas cx5952, and cx3072 contain two distinct B7H3-targeting sdAb that bind different epitopes. The MAB-FV, cx5067, contains two identical B7H3-targeting FAB domains.

binding result	Binder
no binding	B1
no binding	B2
no binding	B3
no binding	B4

Each binder was assayed against T1, human B7H3 (CD276) on the cell surface (assay: flow cytometry on A375 cells (B7H3+), anti-human Fc secondary).
Protocol: as §1, §2

binding result	Binder
binds	B1
binds	B2
binds	B3
binds	B4
binds	B5
binds	B6
binds	B7

Each binder was assayed against T2, CD3 on the surface of human T cells (assay: flow cytometry on primary human T cells, anti-human Fc secondary).
Protocol: as §1, §2

binding result	Binder
no binding	B5
no binding	B6
no binding	B7
